Columns and labels:
Experiment in all cases: cell-based or functional assay
Hepsin (residues 45-417) = Hepsin (residues 45-417) (human, UniProt P05981 45-417)
[1] = molecular target: T1, Complement factor C1s (Calbiochem) (human, UniProt P09871 16-688)
T1 sequence (looked up): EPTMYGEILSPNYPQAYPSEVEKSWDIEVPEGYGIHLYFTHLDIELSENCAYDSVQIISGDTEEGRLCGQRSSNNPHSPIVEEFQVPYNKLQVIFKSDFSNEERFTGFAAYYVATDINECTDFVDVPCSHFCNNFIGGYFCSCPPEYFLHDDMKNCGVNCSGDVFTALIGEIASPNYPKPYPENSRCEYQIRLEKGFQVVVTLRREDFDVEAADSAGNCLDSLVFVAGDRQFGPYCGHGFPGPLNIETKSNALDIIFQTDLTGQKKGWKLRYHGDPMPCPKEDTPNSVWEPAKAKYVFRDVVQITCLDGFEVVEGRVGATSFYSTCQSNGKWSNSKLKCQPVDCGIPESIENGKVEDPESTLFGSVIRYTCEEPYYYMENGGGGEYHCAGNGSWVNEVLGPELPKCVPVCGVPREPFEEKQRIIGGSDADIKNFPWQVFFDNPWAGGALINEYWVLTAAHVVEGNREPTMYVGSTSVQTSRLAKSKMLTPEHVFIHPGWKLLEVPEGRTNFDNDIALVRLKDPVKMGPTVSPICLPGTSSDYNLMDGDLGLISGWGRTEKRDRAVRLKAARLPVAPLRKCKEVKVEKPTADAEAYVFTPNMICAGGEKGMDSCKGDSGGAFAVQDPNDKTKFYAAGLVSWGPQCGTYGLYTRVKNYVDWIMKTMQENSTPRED

[2] = molecular target: Factor XIa (Haematologic Technologies) (human, UniProt P03951 19-625)
[3] = molecular target: Factor Xa (Haematologic Technologies) (human, UniProt P00742 41-179; P00742 235-488, limits assumed)
uPA (Chemicon) = uPA (Chemicon) (human, UniProt P00749 21-431, limits assumed)
Chymotrypsin (Sigma) = Chymotrypsin (Sigma) (human, UniProt P17538 19-263)
[4] = molecular target: T2, Matriptase (residues 615-855) (human, UniProt Q9Y5Y6 615-855)
T2 sequence (looked up): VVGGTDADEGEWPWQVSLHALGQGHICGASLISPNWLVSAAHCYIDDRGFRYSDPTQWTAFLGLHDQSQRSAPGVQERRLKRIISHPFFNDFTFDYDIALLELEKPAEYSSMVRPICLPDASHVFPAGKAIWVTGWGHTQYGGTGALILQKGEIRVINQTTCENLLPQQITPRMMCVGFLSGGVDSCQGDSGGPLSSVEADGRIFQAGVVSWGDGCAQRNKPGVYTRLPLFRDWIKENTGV

[5] = molecular target: T3, Factor XIIa (American Diagnostica) (human, UniProt P00748 20-615, limits assumed)
T3 sequence (looked up): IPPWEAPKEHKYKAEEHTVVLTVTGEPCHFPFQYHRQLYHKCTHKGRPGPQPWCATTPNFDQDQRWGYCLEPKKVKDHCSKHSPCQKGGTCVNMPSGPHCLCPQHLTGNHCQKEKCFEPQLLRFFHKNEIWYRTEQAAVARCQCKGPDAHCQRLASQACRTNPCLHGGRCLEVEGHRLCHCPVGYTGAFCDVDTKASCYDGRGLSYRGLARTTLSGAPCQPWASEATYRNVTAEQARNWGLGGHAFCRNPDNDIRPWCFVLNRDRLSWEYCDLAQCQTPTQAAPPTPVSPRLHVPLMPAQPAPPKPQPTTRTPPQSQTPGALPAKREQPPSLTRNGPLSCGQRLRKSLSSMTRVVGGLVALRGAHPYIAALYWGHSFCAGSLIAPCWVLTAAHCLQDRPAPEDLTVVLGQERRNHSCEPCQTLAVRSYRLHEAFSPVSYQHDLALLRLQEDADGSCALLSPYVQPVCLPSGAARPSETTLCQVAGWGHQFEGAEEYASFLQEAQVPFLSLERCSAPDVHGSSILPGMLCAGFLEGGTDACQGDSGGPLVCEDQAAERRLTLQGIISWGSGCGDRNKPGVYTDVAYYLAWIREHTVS

[6] = molecular target: Bovine trypsin (Worthington) (bovine, UniProt P00760 24-246)
[7] = molecular target: tPA (Activase, Genentech) (human, UniProt P00750 36-562)
[8] = molecular target: Thrombin (Haematologic Technologies) (human, UniProt P00734 328-622)
[9] = molecular target: Activated Protein C (Haematologic Technologies) (human, UniProt P04070 43-197; P04070 212-461)
[10] = molecular target: Tissue factor/factor VIIa complex: human tissue factor (residues 1-219) with human recombinant FVIIa (human, UniProt P13726 33-251; P08709 61-466)
[11] = molecular target: T4, Hepatocyte growth factor activator (HGFA), activated 34 kDa short form, residues Val373 to Ser655 with a … (human, UniProt Q04756 408-655, single N-acetylglucosamine attached to Asn74 (chymotrypsinogen numbering))
T4 sequence 1: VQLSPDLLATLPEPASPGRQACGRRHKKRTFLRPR
T4 sequence 2: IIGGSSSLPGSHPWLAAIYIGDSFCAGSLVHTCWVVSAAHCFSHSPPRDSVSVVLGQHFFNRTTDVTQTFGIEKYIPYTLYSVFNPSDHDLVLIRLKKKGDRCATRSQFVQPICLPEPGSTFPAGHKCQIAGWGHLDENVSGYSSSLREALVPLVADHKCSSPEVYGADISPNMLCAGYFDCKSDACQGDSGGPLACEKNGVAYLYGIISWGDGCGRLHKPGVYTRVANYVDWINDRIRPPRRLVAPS

[12] = molecular target: Plasma kallikrein (American Diagnostica) (human, UniProt P03952 20-638)
[13] = molecular target: Plasmin (Haematologic Technologies) (human, UniProt P00747 97-810, limits assumed)
Chain of Plasmin (Haematologic Technologies) (P00747 97-810 limits assumed): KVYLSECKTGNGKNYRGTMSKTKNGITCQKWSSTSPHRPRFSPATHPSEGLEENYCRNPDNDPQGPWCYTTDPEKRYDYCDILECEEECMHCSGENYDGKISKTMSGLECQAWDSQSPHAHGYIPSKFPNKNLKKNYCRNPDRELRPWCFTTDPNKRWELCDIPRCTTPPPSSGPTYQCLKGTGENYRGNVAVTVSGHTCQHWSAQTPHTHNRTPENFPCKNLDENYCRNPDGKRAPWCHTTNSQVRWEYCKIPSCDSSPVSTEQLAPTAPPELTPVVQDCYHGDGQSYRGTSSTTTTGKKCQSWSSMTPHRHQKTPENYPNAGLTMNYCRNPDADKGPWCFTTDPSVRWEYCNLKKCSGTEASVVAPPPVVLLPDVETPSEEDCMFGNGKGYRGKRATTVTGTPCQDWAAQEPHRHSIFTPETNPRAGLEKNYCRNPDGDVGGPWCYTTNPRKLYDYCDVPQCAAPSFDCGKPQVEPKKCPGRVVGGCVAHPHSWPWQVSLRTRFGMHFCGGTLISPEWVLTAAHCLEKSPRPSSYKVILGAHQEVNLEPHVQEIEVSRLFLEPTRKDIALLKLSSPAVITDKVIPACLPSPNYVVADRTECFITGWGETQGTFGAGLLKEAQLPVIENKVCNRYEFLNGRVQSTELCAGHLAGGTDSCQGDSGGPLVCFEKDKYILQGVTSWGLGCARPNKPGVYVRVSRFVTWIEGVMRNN

Chain of Tissue factor/factor VIIa complex: human tissue factor (residues 1-219) with human recombinant FVIIa (P13726 33-251 limits assumed, chain 1 of 2): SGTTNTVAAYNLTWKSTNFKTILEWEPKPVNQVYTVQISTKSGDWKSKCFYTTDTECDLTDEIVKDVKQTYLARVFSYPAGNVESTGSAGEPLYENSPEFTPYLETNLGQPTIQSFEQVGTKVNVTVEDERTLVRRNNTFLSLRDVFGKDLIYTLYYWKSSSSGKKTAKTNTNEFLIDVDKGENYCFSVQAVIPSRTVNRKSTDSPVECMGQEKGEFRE
Chain of Tissue factor/factor VIIa complex: human tissue factor (residues 1-219) with human recombinant FVIIa (P08709 61-466 limits assumed, chain 2 of 2): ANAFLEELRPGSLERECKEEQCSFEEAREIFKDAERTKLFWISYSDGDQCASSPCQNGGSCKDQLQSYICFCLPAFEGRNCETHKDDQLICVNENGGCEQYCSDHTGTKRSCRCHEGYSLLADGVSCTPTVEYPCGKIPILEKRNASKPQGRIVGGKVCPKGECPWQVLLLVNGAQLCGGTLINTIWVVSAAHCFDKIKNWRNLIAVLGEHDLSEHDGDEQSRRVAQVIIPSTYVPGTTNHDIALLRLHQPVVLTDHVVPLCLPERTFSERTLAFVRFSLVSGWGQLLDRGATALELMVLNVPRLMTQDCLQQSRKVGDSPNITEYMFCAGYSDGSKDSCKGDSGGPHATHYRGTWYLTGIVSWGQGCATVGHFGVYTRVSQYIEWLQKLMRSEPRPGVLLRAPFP
Chain of Hepsin (residues 45-417) (P05981 45-417 limits assumed): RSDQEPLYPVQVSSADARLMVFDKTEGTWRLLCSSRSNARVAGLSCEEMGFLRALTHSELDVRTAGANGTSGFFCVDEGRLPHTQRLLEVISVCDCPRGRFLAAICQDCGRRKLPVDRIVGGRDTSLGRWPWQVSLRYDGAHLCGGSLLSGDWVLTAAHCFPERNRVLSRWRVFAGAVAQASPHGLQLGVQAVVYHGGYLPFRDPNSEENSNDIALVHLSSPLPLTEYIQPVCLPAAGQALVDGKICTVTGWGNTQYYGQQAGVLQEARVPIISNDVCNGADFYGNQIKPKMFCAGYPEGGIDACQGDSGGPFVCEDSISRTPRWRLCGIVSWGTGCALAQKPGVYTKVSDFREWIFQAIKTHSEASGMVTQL
Chain of Factor Xa (Haematologic Technologies) (P00742 41-179 limits assumed, chain 1 of 2): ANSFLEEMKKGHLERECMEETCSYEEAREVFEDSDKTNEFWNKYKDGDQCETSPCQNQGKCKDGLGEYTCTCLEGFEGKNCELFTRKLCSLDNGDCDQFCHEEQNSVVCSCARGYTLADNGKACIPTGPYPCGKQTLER
Chain of Factor Xa (Haematologic Technologies) (P00742 235-488 limits assumed, chain 2 of 2): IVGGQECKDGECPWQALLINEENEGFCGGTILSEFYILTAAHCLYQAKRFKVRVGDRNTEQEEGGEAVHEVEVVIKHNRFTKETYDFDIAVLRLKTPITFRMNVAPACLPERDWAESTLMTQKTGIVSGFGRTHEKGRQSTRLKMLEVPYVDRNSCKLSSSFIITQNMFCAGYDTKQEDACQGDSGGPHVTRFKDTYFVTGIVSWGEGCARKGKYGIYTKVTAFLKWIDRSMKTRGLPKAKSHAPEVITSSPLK
Chain of Bovine trypsin (Worthington) (P00760 24-246): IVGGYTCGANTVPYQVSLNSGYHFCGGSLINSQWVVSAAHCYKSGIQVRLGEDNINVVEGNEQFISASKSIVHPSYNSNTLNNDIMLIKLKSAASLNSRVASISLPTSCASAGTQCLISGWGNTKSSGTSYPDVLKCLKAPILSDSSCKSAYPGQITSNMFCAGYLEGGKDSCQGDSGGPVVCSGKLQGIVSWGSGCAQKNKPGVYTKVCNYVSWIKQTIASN
Chain of Activated Protein C (Haematologic Technologies) (P04070 43-197, form in doubt, chain 1 of 2): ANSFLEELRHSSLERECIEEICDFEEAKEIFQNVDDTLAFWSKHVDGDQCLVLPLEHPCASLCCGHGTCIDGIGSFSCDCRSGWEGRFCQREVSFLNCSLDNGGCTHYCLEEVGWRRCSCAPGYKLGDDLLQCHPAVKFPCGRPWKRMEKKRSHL
Chain of Activated Protein C (Haematologic Technologies) (P04070 212-461, form in doubt, chain 2 of 2): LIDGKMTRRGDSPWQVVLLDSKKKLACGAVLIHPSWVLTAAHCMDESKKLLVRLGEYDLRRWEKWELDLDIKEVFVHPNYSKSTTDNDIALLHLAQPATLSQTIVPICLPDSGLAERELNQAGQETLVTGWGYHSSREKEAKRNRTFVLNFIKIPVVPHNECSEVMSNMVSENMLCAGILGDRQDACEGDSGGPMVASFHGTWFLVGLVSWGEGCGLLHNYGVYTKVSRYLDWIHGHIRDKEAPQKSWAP
Chain of tPA (Activase, Genentech) (P00750 36-562 limits assumed): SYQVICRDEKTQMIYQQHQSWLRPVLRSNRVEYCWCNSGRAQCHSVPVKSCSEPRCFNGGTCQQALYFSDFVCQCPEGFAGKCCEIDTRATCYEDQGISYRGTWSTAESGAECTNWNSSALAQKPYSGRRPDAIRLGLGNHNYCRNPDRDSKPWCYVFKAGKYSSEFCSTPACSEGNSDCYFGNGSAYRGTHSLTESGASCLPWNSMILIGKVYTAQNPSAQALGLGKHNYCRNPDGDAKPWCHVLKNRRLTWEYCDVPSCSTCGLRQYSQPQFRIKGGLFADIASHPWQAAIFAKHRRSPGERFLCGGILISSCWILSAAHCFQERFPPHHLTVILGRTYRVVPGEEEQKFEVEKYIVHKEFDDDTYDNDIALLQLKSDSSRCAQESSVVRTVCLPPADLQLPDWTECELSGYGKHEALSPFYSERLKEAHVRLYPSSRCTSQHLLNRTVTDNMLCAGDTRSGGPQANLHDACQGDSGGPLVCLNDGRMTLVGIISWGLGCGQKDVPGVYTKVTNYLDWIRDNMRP
Chain of Plasma kallikrein (American Diagnostica) (P03952 20-638 limits assumed): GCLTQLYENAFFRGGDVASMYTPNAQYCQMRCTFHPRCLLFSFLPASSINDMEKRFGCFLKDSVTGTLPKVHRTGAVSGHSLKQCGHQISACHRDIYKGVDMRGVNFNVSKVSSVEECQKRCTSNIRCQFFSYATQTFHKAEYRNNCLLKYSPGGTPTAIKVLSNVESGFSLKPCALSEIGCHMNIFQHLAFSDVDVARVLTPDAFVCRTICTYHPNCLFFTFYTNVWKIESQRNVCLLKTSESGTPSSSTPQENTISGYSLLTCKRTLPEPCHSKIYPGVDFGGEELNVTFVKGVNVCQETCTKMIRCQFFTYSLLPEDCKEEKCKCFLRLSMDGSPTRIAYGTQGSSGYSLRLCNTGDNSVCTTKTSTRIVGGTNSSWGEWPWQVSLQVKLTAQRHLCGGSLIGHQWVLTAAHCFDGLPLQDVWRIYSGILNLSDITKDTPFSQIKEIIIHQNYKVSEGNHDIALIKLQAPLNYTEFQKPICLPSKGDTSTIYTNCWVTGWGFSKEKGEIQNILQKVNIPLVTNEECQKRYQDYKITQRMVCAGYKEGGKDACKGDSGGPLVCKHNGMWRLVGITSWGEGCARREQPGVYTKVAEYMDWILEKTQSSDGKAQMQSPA
Chain of Chymotrypsin (Sigma) (P17538 19-263): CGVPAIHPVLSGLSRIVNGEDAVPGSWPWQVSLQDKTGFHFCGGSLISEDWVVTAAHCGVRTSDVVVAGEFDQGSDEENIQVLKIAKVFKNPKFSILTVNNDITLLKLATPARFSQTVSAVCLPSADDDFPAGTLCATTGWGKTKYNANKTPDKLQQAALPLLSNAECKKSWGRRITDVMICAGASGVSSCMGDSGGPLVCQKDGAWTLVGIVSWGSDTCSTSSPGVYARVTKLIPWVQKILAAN

IC50 (nM), inhibition of enzyme activity on chromogenic substrate (Hepsin (residues 45-417)): 6.7 nM | IC50 (nM), inhibition of enzyme activity on chromogenic substrate [1]: > 1000 nM | IC50 (nM), inhibition of enzyme activity on chromogenic substrate [2]: > 1000 nM | IC50 (nM), inhibition of enzyme activity on chromogenic substrate [3]: > 1000 nM | IC50 (nM), inhibition of enzyme activity on chromogenic substrate (uPA (Chemicon)): > 1000 nM | IC50 (nM), inhibition of enzyme activity on chromogenic substrate (Chymotrypsin (Sigma)): > 1000 nM | IC50 (nM), inhibition of enzyme activity on chromogenic substrate [4]: 1.7 nM | IC50 (nM), inhibition of enzyme activity on chromogenic substrate [5]: > 1000 nM | IC50 (nM), inhibition of enzyme activity on chromogenic substrate [6]: 0.7 nM | IC50 (nM), inhibition of enzyme activity on chromogenic substrate [7]: > 1000 nM | IC50 (nM), inhibition of enzyme activity on chromogenic substrate [8]: > 1000 nM | IC50 (nM), inhibition of enzyme activity on chromogenic substrate [9]: > 1000 nM | IC50 (nM), inhibition of enzyme activity on chromogenic substrate [10]: > 1000 nM | IC50 (nM), inhibition of enzyme activity on chromogenic substrate [11]: 4 nM | IC50 (nM), inhibition of enzyme activity on chromogenic substrate [12]: 21 nM | IC50 (nM), inhibition of enzyme activity on chromogenic substrate [13]: 115 nM
B1: First Kunitz domain (KD1) of human HAI-1B, amino acids 246-303 of the precursor, with N-terminal polyhistidine leader (other)
chain: MKHQHQHQHQHQHQMHQTEDYCLASNKVGRCRGSFPRWYYDPTEQICKSFVYGGCLGNKNNYLREEECILACRGV

Source: patent US20090276160A1 (published 2009)
